The source of these data is patent publication US10829545 (MIT, dated 2020).

Broadly, the Kd is the constant that tells how readily two partners part at equilibrium. Read a high Kd as lower affinity.

The target in experiment [1] is T1, Zika virus envelope protein (EP), strain ILM (Brazil Paraiba 2015), on whole virus (Zika virus).
T1 construct: also called Zika strain ILM

Experiment [2] deals with T1, Zika virus envelope protein (EP), …. Nature of the experiment: cell-based or functional assay.

B1: fusion loop targeting pan-flavivirus antibody (4G2) (antibody, V domains shown)
VH: EVQLQQSGPELVKPGTSVKISCKTSGYTFTEYTIHWVKQSHGKSLAWIGGIDPNSGGTNYSPNFKGKATLTVDKSSSTAYMDLRSLSSEDSAVYFCARIYHYDGYFDVWGAGTAVTVSS
VL: DIKMTQSPSSMYASLGERVTITCKASQDINSYLTWFQQKPGKSPKTLIYRANRLIDGVPSRFSGSGSGQDYSLTISSLDYEDMGIYYCLQYDEFPPTFGGGTKLEIKR
For B1, in experiment [1], the Kd amounted to 6.41 µg/mL.

B2: mAb 7 (antibody, V domains shown)
VH: EVQLLESGGGLVQPGGSLRLSCAASGFSFSTYSMHWVRQAPGKGLEWVSAISGEGDSAYYADSVKGRFEISRDNSKNTLYLQMNKVRAEDTAVYYCVGGYSNFYYYYTMDAWGQGTMVTVSS
VL: DIVMTQSPASLSLSPGERATLSCRATQSIVTFLAWYQQKPGQAPRLLIYDASTNASGIPARFSGSRSGTDFTLTITRLEPEDFAVYYCQQRYNWPPYSFGQGTKLEIK
notes: also called VH.2 / VL.4
In experiment [1], B2 had an equilibrium dissociation constant (Kd) of 5.21 µg/mL.

B3: mAb 8 (antibody, V domains shown)
VH: EVQLLESGGGLVQPGGSLRLSCAASGFSFSTYSMHWVRQAPGKGLEWVSAISGEGDSAYYADSVKGRFTISRDNSKNTLYLQMNKVRAEDTAVYYCVGGYSNFYYYYTMDAWGQGTMVTVSS
VL: DIVMTQSPASLSLSPGERATLSCRATQSISTFLAWYQQKPGQAPRLLIYDASTRASGIPARFSGSRSGTDFTLTITRLEPEDFAVYYCQQRYNWPPYSFGQGTKLEIK
notes: also called VH.1 / VL.2
On to B3, for which the “PRNT50 (plaque reduction neutralization test on BHK-21 cells)” value in experiment [2] is 5.12 µg/mL. Besides, in experiment [1], the Kd was 19.3 µg/mL.

B4: mAb 6 (antibody, V domains shown)
VH: EVQLVESGGGLVQPGGSLRLSCSASGFSFSTYSMHWVRQAPGKGLEYVSAITGEGDSAFYADSVKGRFTISRDNSKNTLYFEMNSLRPEDTAVYYCVGGYSNFYYYYTMDAWGQGTSVTVSS
VL: EIVLTQSPASLSLSPGERATLSCRATQSISTFLAWYQHKPGQAPRLLIYDASTRASGVPARFSGSRSGTDFTLTISSLEPEDFAVYYCQQRYNWPPYSFGQGTKVEIK
notes: also called VH.3 / VL.1
As to B4, in experiment [2], the “PRNT50 (plaque reduction neutralization test on BHK-21 cells)” value came out at 0.0597 µg/mL. Besides, the affinity in experiment [1], expressed as Kd, was 3.85 µg/mL.
